B1: TMEM192 (parent)
chain: LWILHLLLECYIQYHHSKIRNRGY
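Also: lentivirally expressed fusions sorted by FACS into six bins by GFP to DsRed ratio, PSI derived from sequencing read proportions per bin multiplied by bin number.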

The series covers variants of B1. The experiment in a line: protein stability index of a GFP-peptide fusion (GPS, HEK-293T) (PSI 1-6); higher = more stable. The note with it: c terminus: a fixed tail appended.
As for LWILHLLLEYYIQYHHSKIRNRGY [C10Y], the protein stability index amounted to 2.2.

For the variant LWILHLLLECYIQYMHSKIRNRGY [H15M], the protein stability index came out at 2.41.

In the case of LWILHLLLECYIQYSHSKIRNRGY [H15S], the protein stability index was 2.72.

On to LWILHLLLECYIQYPHSKIRNRGY [H15P], for which the protein stability index was 2.18.

Take LWILHLLLECYIQYDHSKIRNRGY [H15D]: the protein stability index was found to be 1.56.

As to LWILHLLLECYIQYQHSKIRNRGY [H15Q], the protein stability index is 2.24.

In the case of LWILHLLLECYIQYVHSKIRNRGY [H15V], the protein stability index was found to be 2.15.

Regarding LWILHLLLECYIQYLHSKIRNRGY [H15L], the protein stability index was found to be 2.14.

As for LWILHLLLECYIQYNHSKIRNRGY [H15N], the protein stability index was 2.7.

Take LWILHLLLECYIQYCHSKIRNRGY [H15C]: the protein stability index is 2.19.

Take LWILHLLLECYIQYTHSKIRNRGY [H15T]: the protein stability index stood at 1.25.

As to LWILHLLLECYIQYYHSKIRNRGY [H15Y], the protein stability index stood at 2.86.

As to LWILHLLLECYIQYRHSKIRNRGY [H15R], the protein stability index was 2.33.

LWILHLLLECYIQYGHSKIRNRGY [H15G]: the protein stability index was 2.37.

For the variant LWILHLLLECIIQYHHSKIRNRGY [Y11I], the protein stability index came out at 2.47.

For LWILHLLLECQIQYHHSKIRNRGY [Y11Q], the protein stability index turned out to be 2.06.

For the variant LWILHLLLECSIQYHHSKIRNRGY [Y11S], the protein stability index is 3.45.

As to LWILHLLLECAIQYHHSKIRNRGY [Y11A], the protein stability index was 2.47.

Take LWILHLLLECGIQYHHSKIRNRGY [Y11G]: the protein stability index turned out to be 3.4.

Regarding LWILHLLLECKIQYHHSKIRNRGY [Y11K], the protein stability index worked out at 1.93.

Take LWILHLLLECFIQYHHSKIRNRGY [Y11F]: the protein stability index came to 3.94.

Consider LWILHLLLECMIQYHHSKIRNRGY [Y11M], for which the protein stability index was determined as 2.48.

As to LWILHLLLECDIQYHHSKIRNRGY [Y11D], the protein stability index worked out at 1.25.

LWILHLLLECTIQYHHSKIRNRGY [Y11T]: the protein stability index came out at 2.21.

On to LWILHLLLECEIQYHHSKIRNRGY [Y11E], for which the protein stability index is 3.19.

With LWILHLLLECHIQYHHSKIRNRGY [Y11H], the protein stability index is 1.77.

Consider LWILHLLLECNIQYHHSKIRNRGY [Y11N], for which the protein stability index amounted to 3.81.

As to LWILHLLLECYIIYHHSKIRNRGY [Q13I], the protein stability index amounted to 2.75.

Turning to LWILHLLLECYINYHHSKIRNRGY [Q13N], the protein stability index was 3.19.

Regarding LWILHLLLECYISYHHSKIRNRGY [Q13S], the protein stability index worked out at 1.9.

Turning to LWILHLLLECYIDYHHSKIRNRGY [Q13D], the protein stability index worked out at 2.32.

For the variant LWILHLLLECYIAYHHSKIRNRGY [Q13A], the protein stability index was 3.94.

Turning to LWILHLLLECYICYHHSKIRNRGY [Q13C], the protein stability index was 2.06.

On to LWILHLLLECYIHYHHSKIRNRGY [Q13H], for which the protein stability index came to 2.98.

Turning to LWILHLLLECYIPYHHSKIRNRGY [Q13P], the protein stability index was 3.

Turning to LWILHLLLECYIFYHHSKIRNRGY [Q13F], the protein stability index is 2.88.

On to LWILHLLLECYILYHHSKIRNRGY [Q13L], for which the protein stability index was 2.

For LWILHLLLECYITYHHSKIRNRGY [Q13T], the protein stability index stood at 1.75.

LWILHLLLECYIKYHHSKIRNRGY [Q13K]: the protein stability index was 2.05.

Consider LWILHLLLECYIYYHHSKIRNRGY [Q13Y], for which the protein stability index worked out at 1.85.

In the case of LWILHLLLECYIMYHHSKIRNRGY [Q13M], the protein stability index is 2.08.

Consider LWILHLLLECYIEYHHSKIRNRGY [Q13E], for which the protein stability index was 1.8.

For the variant LWILHLLLECYIRYHHSKIRNRGY [Q13R], the protein stability index was 2.9.

Turning to LWILHLLLECYIGYHHSKIRNRGY [Q13G], the protein stability index came to 1.39.

On to LWILHLLLECYMQYHHSKIRNRGY [I12M], for which the protein stability index is 1.82.

On to LWILHLLLECYWQYHHSKIRNRGY [I12W], for which the protein stability index stood at 1.79.

LWILHLLLECYCQYHHSKIRNRGY [I12C]: the protein stability index was 1.69.

On to LWILHLLLECYQQYHHSKIRNRGY [I12Q], for which the protein stability index turned out to be 1.62.

For the variant LWILHLLLECYSQYHHSKIRNRGY [I12S], the protein stability index is 1.94.

On to LWILHLLLECYLQYHHSKIRNRGY [I12L], for which the protein stability index came to 2.53.

As for LWILHLLLECYTQYHHSKIRNRGY [I12T], the protein stability index is 2.58.

On to LWILHLLLECYVQYHHSKIRNRGY [I12V], for which the protein stability index was found to be 2.27.

For the variant LWILHLLLECYKQYHHSKIRNRGY [I12K], the protein stability index is 2.21.

Turning to LWILHLLLECYGQYHHSKIRNRGY [I12G], the protein stability index amounted to 1.07.

As for LWILHLLLECYEQYHHSKIRNRGY [I12E], the protein stability index was determined as 1.88.

As to LWILHLLLECYRQYHHSKIRNRGY [I12R], the protein stability index was found to be 2.8.

Consider LWILHLLLECYNQYHHSKIRNRGY [I12N], for which the protein stability index was found to be 2.13.

As to LWILHLLLECYFQYHHSKIRNRGY [I12F], the protein stability index turned out to be 3.41.

As for LWILHLLLECYHQYHHSKIRNRGY [I12H], the protein stability index worked out at 1.95.

Take LWILHLLLECYDQYHHSKIRNRGY [I12D]: the protein stability index worked out at 1.5.

LWILHLLLECYIQYHPSKIRNRGY [H16P]: the protein stability index is 2.29.

For the variant LWILHLLLECYIQYHGSKIRNRGY [H16G], the protein stability index worked out at 2.53.

In the case of LWILHLLLECYIQYHLSKIRNRGY [H16L], the protein stability index was determined as 1.85.

Consider LWILHLLLECYIQYHNSKIRNRGY [H16N], for which the protein stability index worked out at 1.3.

Regarding LWILHLLLECYIQYHSSKIRNRGY [H16S], the protein stability index turned out to be 1.05.

Consider LWILHLLLECYIQYHFSKIRNRGY [H16F], for which the protein stability index is 2.36.

Turning to LWILHLLLECYIQYHCSKIRNRGY [H16C], the protein stability index worked out at 2.41.

On to LWILHLLLECYIQYHKSKIRNRGY [H16K], for which the protein stability index amounted to 1.64.

For LWILHLLLECYIQYHDSKIRNRGY [H16D], the protein stability index was 1.47.

In the case of LWILHLLLECYIQYHISKIRNRGY [H16I], the protein stability index was 3.68.

For LWILHLLLECYIQYHRSKIRNRGY [H16R], the protein stability index amounted to 1.5.

As for LWILHLLLECYIQYHWSKIRNRGY [H16W], the protein stability index was found to be 2.85.

Regarding LWILHLLLECYIQYHQSKIRNRGY [H16Q], the protein stability index turned out to be 2.43.

LWILHLLLECYIQYHVSKIRNRGY [H16V]: the protein stability index amounted to 2.54.

As for LWILHLLLECYIQYHESKIRNRGY [H16E], the protein stability index was determined as 1.91.

With LWILHLLLECYIQNHHSKIRNRGY [Y14N], the protein stability index stood at 1.53.

Regarding LWILHLLLECYIQQHHSKIRNRGY [Y14Q], the protein stability index worked out at 2.

Regarding LWILHLLLECYIQRHHSKIRNRGY [Y14R], the protein stability index was 2.11.

Take LWILHLLLECYIQVHHSKIRNRGY [Y14V]: the protein stability index came out at 2.53.

Turning to LWILHLLLECYIQEHHSKIRNRGY [Y14E], the protein stability index was determined as 2.18.

Turning to LWILHLLLECYIQFHHSKIRNRGY [Y14F], the protein stability index was determined as 2.96.

Turning to LWILHLLLECYIQHHHSKIRNRGY [Y14H], the protein stability index stood at 2.31.

With LWILHLLLECYIQIHHSKIRNRGY [Y14I], the protein stability index worked out at 1.79.

As to LWILHLLLECYIQTHHSKIRNRGY [Y14T], the protein stability index was 2.49.

As for LWILHLLLECYIQGHHSKIRNRGY [Y14G], the protein stability index amounted to 1.41.

On to LWILHLLLECYIQDHHSKIRNRGY [Y14D], for which the protein stability index was 2.21.

In the case of LWILHLLLECYIQCHHSKIRNRGY [Y14C], the protein stability index was determined as 2.16.

With LWILHLLLECYIQSHHSKIRNRGY [Y14S], the protein stability index was 2.47.

In the case of LWILHLLLECYIQKHHSKIRNRGY [Y14K], the protein stability index worked out at 2.01.

Consider LWILHLLLECYIQPHHSKIRNRGY [Y14P], for which the protein stability index turned out to be 2.67.

On to LWILHLLLECYIQAHHSKIRNRGY [Y14A], for which the protein stability index came to 3.1.

For the variant LWILHLLLECYIQWHHSKIRNRGY [Y14W], the protein stability index worked out at 1.1.

Regarding LWILHLLLECYIQLHHSKIRNRGY [Y14L], the protein stability index came to 3.2.

Regarding LWILHLLLECYIQYHHAKIRNRGY [S17A], the protein stability index came to 2.68.

These data come from the supplement of paper PMC10567573.
